Test results taken from publication PMC4372080 (Nature, 2014).

Target: T1, TmrA-A591C (Thermus thermophilus, UniProt Q72J05 1-600, A591C)
T1 sequence (looked up): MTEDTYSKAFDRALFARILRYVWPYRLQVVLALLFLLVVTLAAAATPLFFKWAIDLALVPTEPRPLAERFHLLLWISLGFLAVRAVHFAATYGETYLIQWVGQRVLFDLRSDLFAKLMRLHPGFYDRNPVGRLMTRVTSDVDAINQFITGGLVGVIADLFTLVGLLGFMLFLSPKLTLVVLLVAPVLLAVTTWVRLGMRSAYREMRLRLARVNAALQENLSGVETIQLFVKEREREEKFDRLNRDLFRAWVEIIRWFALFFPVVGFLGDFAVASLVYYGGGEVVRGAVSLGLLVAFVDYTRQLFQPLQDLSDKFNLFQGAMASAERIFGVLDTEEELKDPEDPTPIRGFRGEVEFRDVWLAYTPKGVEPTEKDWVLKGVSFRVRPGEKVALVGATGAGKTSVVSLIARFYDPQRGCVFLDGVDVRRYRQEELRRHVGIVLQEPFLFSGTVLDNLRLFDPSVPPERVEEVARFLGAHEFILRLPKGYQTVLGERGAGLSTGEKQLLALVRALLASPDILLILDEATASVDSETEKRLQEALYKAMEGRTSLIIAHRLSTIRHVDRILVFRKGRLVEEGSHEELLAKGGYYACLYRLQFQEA
Experiment: cross-linking

B1: TmrB-A567C (natural protein, Thermus thermophilus, UniProt Q72J04 1-578, looked up)
chain: MTGRSAAPLLRRLWPYVGRYRWRYLWAVLAGLVSIFFFVLTPYFLRLAVDAVQAGRGFGVYALAIVASAALSGLLSYAMRRLAVVASRQVEYDLRRDLLHHLLTLDRDFYHKHRVGDLMNRLNTDLSAVREMVGPGILMGSRLSFLVLLAFLSMYAVNARLAFYLTLILPGIFLAMRFLLRLIDRRYREAQEVFDRISTLAQEAFSGIRVVKGYALERRMVAWFQDLNRLYVEKSLALARVEGPLHALLGFLMGFAFLTVLWAGGAMVVRGELSVGELVQFNAYLAQLTWPILGLGWVMALYQRGLTSLRRLFELLDEKPAIRDEDPLPLALEDLSGEVRFEGVGLKRDGRWLLRGLTLTIPEGMTLGITGRTGSGKSLLAALVPRLLDPSEGRVYVGGHEARRIPLAVLRKAVGVAPQEPFLFSETILENIAFGLDEVDRERVEWAARLAGIHEEILAFPKGYETVLGERGITLSGGQRQRVALARALAKRPKILILDDALSAVDAETEARILQGLKTVLGKQTTLLISHRTAALRHADWIIVLDGGRIVEEGTHESLLQAGGLYCEMDRLQKEVEA
**Q.** Does B1 bind?
**A.** Result: binds
